Reference: publication PMC9482650, “Quantitative fragmentomics allow affinity mapping of interactomes” (Nature Communications, 2022)

Assays:
Assay in all cases: holdup assay
Parameters in all cases: key: below the threshold = too weak to quantify, mostly under pKd 3.1 to 4
DVL3, Q92997 = target: T1, DVL3, Q92997
T1 sequence (Q92997 244-331, limits assumed, looked up): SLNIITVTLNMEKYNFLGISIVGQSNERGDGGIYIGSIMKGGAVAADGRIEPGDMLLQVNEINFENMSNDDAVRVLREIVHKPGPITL

MPP2, Q14168 = target: T2, MPP2, Q14168
T2 sequence (Q14168 180-250, limits assumed, looked up): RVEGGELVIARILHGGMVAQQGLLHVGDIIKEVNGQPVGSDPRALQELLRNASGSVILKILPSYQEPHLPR

LIN7C, Q9NUP9 = target: T3, LIN7C, Q9NUP9
T3 sequence (Q9NUP9 88-185, limits assumed, looked up): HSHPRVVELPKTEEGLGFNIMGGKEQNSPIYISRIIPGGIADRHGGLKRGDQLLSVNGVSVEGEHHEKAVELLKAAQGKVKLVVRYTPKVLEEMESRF

GRIP2_7, Q9C0E4 = target: GRIP2_7, Q9C0E4
Chain of GRIP2_7, Q9C0E4 (Q9C0E4 934-1023): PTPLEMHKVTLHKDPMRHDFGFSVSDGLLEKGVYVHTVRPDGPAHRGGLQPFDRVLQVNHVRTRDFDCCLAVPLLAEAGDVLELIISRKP

TX1BP3, O14907 = target: T4, TX1BP3, O14907
T4 sequence (O14907 10-122, limits assumed, looked up): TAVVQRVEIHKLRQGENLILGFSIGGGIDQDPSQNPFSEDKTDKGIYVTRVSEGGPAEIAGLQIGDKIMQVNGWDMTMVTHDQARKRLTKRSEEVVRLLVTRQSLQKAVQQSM

SCRIB_3, Q14160 = target: SCRIB_3, Q14160
Chain of SCRIB_3, Q14160 (Q14160 999-1103): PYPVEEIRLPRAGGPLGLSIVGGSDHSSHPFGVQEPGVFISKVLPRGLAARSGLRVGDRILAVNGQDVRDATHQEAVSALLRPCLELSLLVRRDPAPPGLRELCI

GRIP2_6, Q9C0E4 = target: GRIP2_6, Q9C0E4
Chain of GRIP2_6, Q9C0E4 (Q9C0E4 648-740): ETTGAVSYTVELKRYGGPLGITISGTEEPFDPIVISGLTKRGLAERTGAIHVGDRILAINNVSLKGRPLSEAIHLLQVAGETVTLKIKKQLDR

PARD3_3, Q8TEW0 = target: PARD3_3, Q8TEW0
Chain of PARD3_3, Q8TEW0 (Q8TEW0 582-685): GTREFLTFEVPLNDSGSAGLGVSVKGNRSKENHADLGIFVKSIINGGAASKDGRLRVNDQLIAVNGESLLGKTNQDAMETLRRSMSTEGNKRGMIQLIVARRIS

DLG2_3, Q15700 = target: DLG2_3, Q15700
DLG1_1, Q12959 = target: DLG1_1, Q12959
HTRA2, O43464 = target: HTRA2, O43464
Chain of HTRA2, O43464 (O43464 355-458): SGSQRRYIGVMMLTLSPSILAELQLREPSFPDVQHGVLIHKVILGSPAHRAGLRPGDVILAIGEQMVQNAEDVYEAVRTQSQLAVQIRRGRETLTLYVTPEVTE

MPDZ_10, O75970 = target: T5, MPDZ_10, O75970
T5 sequence (O75970 1624-1722, limits assumed, looked up): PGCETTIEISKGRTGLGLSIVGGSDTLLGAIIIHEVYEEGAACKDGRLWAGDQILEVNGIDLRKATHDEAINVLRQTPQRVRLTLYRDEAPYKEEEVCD

GRIP2_4, Q9C0E4 = target: GRIP2_4, Q9C0E4
Chain of GRIP2_4, Q9C0E4 (Q9C0E4 446-548): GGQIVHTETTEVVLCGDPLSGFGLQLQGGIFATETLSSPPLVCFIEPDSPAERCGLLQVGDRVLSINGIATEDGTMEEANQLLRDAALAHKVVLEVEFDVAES

Inadl_10, Q8NI35 = target: Inadl_10, Q8NI35
Chain of Inadl_10, Q8NI35 (Q8NI35 1673-1763): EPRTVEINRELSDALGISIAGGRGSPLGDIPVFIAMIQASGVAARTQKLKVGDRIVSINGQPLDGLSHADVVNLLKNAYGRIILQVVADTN

DLG3_1, Q92796 = target: T6, DLG3_1, Q92796
T6 sequence (Q92796 125-227, limits assumed, looked up): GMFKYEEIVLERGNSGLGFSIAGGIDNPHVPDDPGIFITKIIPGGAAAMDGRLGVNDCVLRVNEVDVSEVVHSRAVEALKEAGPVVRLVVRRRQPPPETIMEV

FRMPD1, Q5SYB0 = target: T7, FRMPD1, Q5SYB0
T7 sequence (Q5SYB0 52-145, limits assumed, looked up): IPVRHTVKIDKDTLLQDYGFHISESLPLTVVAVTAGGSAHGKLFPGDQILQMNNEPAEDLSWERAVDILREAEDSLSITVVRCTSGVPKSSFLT

LNX2_2, Q8N448 = target: T8, LNX2_2, Q8N448
T8 sequence (Q8N448 334-432, limits assumed, looked up): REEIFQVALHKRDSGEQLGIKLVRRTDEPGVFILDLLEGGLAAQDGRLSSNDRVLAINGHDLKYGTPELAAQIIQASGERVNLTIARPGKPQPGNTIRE

NHERF4_2, Q86UT5 = target: NHERF4_2, Q86UT5
Chain of NHERF4_2, Q86UT5 (Q86UT5 220-308): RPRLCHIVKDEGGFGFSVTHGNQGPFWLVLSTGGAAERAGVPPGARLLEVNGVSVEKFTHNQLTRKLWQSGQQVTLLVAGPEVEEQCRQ

LDB3, O75112 = target: LDB3, O75112
Chain of LDB3, O75112 (O75112 1-94): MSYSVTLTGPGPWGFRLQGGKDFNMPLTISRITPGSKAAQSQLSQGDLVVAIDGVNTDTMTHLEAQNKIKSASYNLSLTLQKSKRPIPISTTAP

GORASP1, Q9BQQ3 = target: GORASP1, Q9BQQ3
Chain of GORASP1, Q9BQQ3 (Q9BQQ3 1-208): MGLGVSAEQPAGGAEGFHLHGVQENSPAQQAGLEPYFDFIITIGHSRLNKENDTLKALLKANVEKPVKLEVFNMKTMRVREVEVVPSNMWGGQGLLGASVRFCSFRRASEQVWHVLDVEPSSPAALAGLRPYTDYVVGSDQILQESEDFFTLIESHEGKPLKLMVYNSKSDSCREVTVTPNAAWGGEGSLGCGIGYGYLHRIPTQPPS

GRIP2_5, Q9C0E4 = target: GRIP2_5, Q9C0E4
Chain of GRIP2_5, Q9C0E4 (Q9C0E4 544-642): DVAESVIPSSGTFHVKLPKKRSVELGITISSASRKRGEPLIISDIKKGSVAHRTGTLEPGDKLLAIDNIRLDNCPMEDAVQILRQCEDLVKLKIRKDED

APBA2_2, Q99767 = target: T9, APBA2_2, Q99767
T9 sequence (Q99767 654-744, limits assumed, looked up): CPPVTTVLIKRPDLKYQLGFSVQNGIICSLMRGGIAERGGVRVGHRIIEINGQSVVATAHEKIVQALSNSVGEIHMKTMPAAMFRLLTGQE

SIPA1L2, Q9P2F8 = target: T10, SIPA1L2, Q9P2F8
T10 sequence (Q9P2F8 945-1036, limits assumed, looked up): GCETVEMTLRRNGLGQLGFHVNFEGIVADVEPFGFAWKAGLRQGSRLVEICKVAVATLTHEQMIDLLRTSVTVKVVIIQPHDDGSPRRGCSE

MAGI1_2, Q96QZ7 = target: MAGI1_2, Q96QZ7
Chain of MAGI1_2, Q96QZ7 (Q96QZ7 456-580): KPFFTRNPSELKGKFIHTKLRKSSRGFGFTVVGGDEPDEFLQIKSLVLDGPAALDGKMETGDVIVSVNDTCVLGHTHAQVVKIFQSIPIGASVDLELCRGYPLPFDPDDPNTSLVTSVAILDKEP

DFNB31_2, Q9P202 = target: T11, DFNB31_2, Q9P202
T11 sequence (Q9P202 274-371, limits assumed, looked up): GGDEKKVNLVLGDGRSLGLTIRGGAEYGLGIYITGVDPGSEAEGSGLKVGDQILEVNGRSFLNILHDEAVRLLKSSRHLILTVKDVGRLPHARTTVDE

NOS1, P29475 = target: NOS1, P29475
Chain of NOS1, P29475 (P29475 9-101): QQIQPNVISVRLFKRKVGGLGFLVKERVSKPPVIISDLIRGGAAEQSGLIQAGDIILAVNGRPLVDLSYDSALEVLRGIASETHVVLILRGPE

[1] = plain residues with an end cap or a label only (N-terminal biotin on a linker: ado-ado)
[2] = plain residues with an end cap or a label only (N-terminal biotin on a linker: ttds)
[3] = plain residues with an end cap or a label only (N-terminal biotin on a linker: ahx)

## RGGFGRQTQI [NCBP2L, A6PVI3]
DVL3, Q92997; [1]
  pKd: below the threshold
MPP2, Q14168; [1]
  pKd: below the threshold
LIN7C, Q9NUP9; [1]
  pKd: 3.68
GRIP2_7, Q9C0E4; [1]
  pKd: below the threshold
TX1BP3, O14907; [1]
  pKd: 4.4
SCRIB_3, Q14160; [1]
  pKd: 4.48
GRIP2_6, Q9C0E4; [1]
  pKd: below the threshold
PARD3_3, Q8TEW0; [1]
  pKd: below the threshold
DLG2_3, Q15700; [1]
  pKd: 4.54
DLG1_1, Q12959; [1]
  pKd: 4.39
HTRA2, O43464; [1]
  pKd: below the threshold
MPDZ_10, O75970; [1]
  pKd: below the threshold
GRIP2_4, Q9C0E4; [1]
  pKd: below the threshold
Inadl_10, Q8NI35; [1]
  pKd: below the threshold
DLG3_1, Q92796; [1]
  pKd: 3.58
FRMPD1, Q5SYB0; [1]
  pKd: below the threshold
LNX2_2, Q8N448; [1]
  pKd: below the threshold
NHERF4_2, Q86UT5; [1]
  pKd: below the threshold
LDB3, O75112; [1]
  pKd: 3.66
GORASP1, Q9BQQ3; [1]
  pKd: 3.53
GRIP2_5, Q9C0E4; [1]
  pKd: below the threshold
APBA2_2, Q99767; [1]
  pKd: below the threshold
SIPA1L2, Q9P2F8; [1]
  pKd: below the threshold
MAGI1_2, Q96QZ7; [1]
  pKd: 3.98
DFNB31_2, Q9P202; [1]
  pKd: below the threshold
NOS1, P29475; [1]
  pKd: 4.08

## TGDTLEKFVEGL [CBP, Q92793]
DVL3, Q92997; [2]
  pKd: below the threshold
MPP2, Q14168; [2]
  pKd: below the threshold
LIN7C, Q9NUP9; [2]
  pKd: below the threshold
GRIP2_7, Q9C0E4; [2]
  pKd: below the threshold
TX1BP3, O14907; [2]
  pKd: 4.03
SCRIB_3, Q14160; [2]
  pKd: below the threshold
GRIP2_6, Q9C0E4; [2]
  pKd: below the threshold
PARD3_3, Q8TEW0; [2]
  pKd: below the threshold
DLG2_3, Q15700; [2]
  pKd: below the threshold
DLG1_1, Q12959; [2]
  pKd: below the threshold
HTRA2, O43464; [2]
  pKd: below the threshold
MPDZ_10, O75970; [2]
  pKd: 3.67
GRIP2_4, Q9C0E4; [2]
  pKd: below the threshold
Inadl_10, Q8NI35; [2]
  pKd: below the threshold
DLG3_1, Q92796; [2]
  pKd: below the threshold
FRMPD1, Q5SYB0; [2]
  pKd: below the threshold
LNX2_2, Q8N448; [2]
  pKd: below the threshold
NHERF4_2, Q86UT5; [2]
  pKd: below the threshold
LDB3, O75112; [2]
  pKd: below the threshold
GORASP1, Q9BQQ3; [2]
  pKd: below the threshold
GRIP2_5, Q9C0E4; [2]
  pKd: below the threshold
APBA2_2, Q99767; [2]
  pKd: below the threshold
SIPA1L2, Q9P2F8; [2]
  pKd: below the threshold
MAGI1_2, Q96QZ7; [2]
  pKd: below the threshold
DFNB31_2, Q9P202; [2]
  pKd: below the threshold
NOS1, P29475; [2]
  pKd: below the threshold

## HSGSYLVTSV [APC, P25054]
DVL3, Q92997; [3]
  pKd: below the threshold
MPP2, Q14168; [3]
  pKd: below the threshold
LIN7C, Q9NUP9; [3]
  pKd: 3.72
GRIP2_7, Q9C0E4; [3]
  pKd: below the threshold
TX1BP3, O14907; [3]
  pKd: 5.53
SCRIB_3, Q14160; [3]
  pKd: 4.45
GRIP2_6, Q9C0E4; [3]
  pKd: below the threshold
PARD3_3, Q8TEW0; [3]
  pKd: below the threshold
DLG2_3, Q15700; [3]
  pKd: 4.67
DLG1_1, Q12959; [3]
  pKd: 4.6
HTRA2, O43464; [3]
  pKd: below the threshold
MPDZ_10, O75970; [3]
  pKd: 4.06
GRIP2_4, Q9C0E4; [3]
  pKd: below the threshold
Inadl_10, Q8NI35; [3]
  pKd: 3.64
DLG3_1, Q92796; [3]
  pKd: 3.82
FRMPD1, Q5SYB0; [3]
  pKd: below the threshold
LNX2_2, Q8N448; [3]
  pKd: 4.56
NHERF4_2, Q86UT5; [3]
  pKd: below the threshold
LDB3, O75112; [3]
  pKd: below the threshold
GORASP1, Q9BQQ3; [3]
  pKd: 3.61
GRIP2_5, Q9C0E4; [3]
  pKd: below the threshold
APBA2_2, Q99767; [3]
  pKd: below the threshold
SIPA1L2, Q9P2F8; [3]
  pKd: below the threshold
MAGI1_2, Q96QZ7; [3]
  pKd: 4.05
DFNB31_2, Q9P202; [3]
  pKd: below the threshold
NOS1, P29475; [3]
  pKd: 3.68

## QKNKDKEYYV [NRXN3_rs746444206, Q9Y4C0]
DVL3, Q92997; [1]
  pKd: 3.85
MPP2, Q14168; [1]
  pKd: 4.12
LIN7C, Q9NUP9; [1]
  pKd: 4.08
GRIP2_7, Q9C0E4; [1]
  pKd: 4.8
TX1BP3, O14907; [1]
  pKd: below the threshold
SCRIB_3, Q14160; [1]
  pKd: below the threshold
GRIP2_6, Q9C0E4; [1]
  pKd: 4.02
PARD3_3, Q8TEW0; [1]
  pKd: 4.48
DLG2_3, Q15700; [1]
  pKd: below the threshold
DLG1_1, Q12959; [1]
  pKd: below the threshold
HTRA2, O43464; [1]
  pKd: 3.51
MPDZ_10, O75970; [1]
  pKd: below the threshold
GRIP2_4, Q9C0E4; [1]
  pKd: below the threshold
Inadl_10, Q8NI35; [1]
  pKd: below the threshold
DLG3_1, Q92796; [1]
  pKd: below the threshold
FRMPD1, Q5SYB0; [1]
  pKd: below the threshold
LNX2_2, Q8N448; [1]
  pKd: 4.7
NHERF4_2, Q86UT5; [1]
  pKd: below the threshold
LDB3, O75112; [1]
  pKd: below the threshold
GORASP1, Q9BQQ3; [1]
  pKd: 4.12
GRIP2_5, Q9C0E4; [1]
  pKd: below the threshold
APBA2_2, Q99767; [1]
  pKd: below the threshold
SIPA1L2, Q9P2F8; [1]
  pKd: below the threshold
MAGI1_2, Q96QZ7; [1]
  pKd: below the threshold
DFNB31_2, Q9P202; [1]
  pKd: below the threshold
NOS1, P29475; [1]
  pKd: 3.88

## DPLTPSRSQL [DGKK, Q5KSL6]
DVL3, Q92997; [2]
  pKd: below the threshold
MPP2, Q14168; [2]
  pKd: below the threshold
LIN7C, Q9NUP9; [2]
  pKd: below the threshold
GRIP2_7, Q9C0E4; [2]
  pKd: 3.64
TX1BP3, O14907; [2]
  pKd: below the threshold
SCRIB_3, Q14160; [2]
  pKd: 3.5
GRIP2_6, Q9C0E4; [2]
  pKd: below the threshold
PARD3_3, Q8TEW0; [2]
  pKd: below the threshold
DLG2_3, Q15700; [2]
  pKd: 3.73
DLG1_1, Q12959; [2]
  pKd: 4.01
HTRA2, O43464; [2]
  pKd: below the threshold
MPDZ_10, O75970; [2]
  pKd: below the threshold
GRIP2_4, Q9C0E4; [2]
  pKd: below the threshold
Inadl_10, Q8NI35; [2]
  pKd: below the threshold
DLG3_1, Q92796; [2]
  pKd: below the threshold
FRMPD1, Q5SYB0; [2]
  pKd: 3.73
LNX2_2, Q8N448; [2]
  pKd: below the threshold
NHERF4_2, Q86UT5; [2]
  pKd: below the threshold
LDB3, O75112; [2]
  pKd: below the threshold
GORASP1, Q9BQQ3; [2]
  pKd: below the threshold
GRIP2_5, Q9C0E4; [2]
  pKd: below the threshold
APBA2_2, Q99767; [2]
  pKd: below the threshold
SIPA1L2, Q9P2F8; [2]
  pKd: below the threshold
MAGI1_2, Q96QZ7; [2]
  pKd: below the threshold
DFNB31_2, Q9P202; [2]
  pKd: below the threshold
NOS1, P29475; [2]
  pKd: below the threshold
